B1: Prostaglandin G/H synthase 1 (Bos taurus), O62664 (protein)
chain: MSRQGISLRFPLLLLLLSPSPVLPADPGAPAPVNPCCYYPCQHQGICVRFGLDRYQCDCTRTGYYGPNCTIPEIWTWLRTTLRPSPSFVHFLLTHGRWLWDFVNATFIRDKLMRLVLTVRSNLIPSPPTYNVAHDYISWESFSNVSYYTRILPSVPRDCPTPMGTKGKKQLPDAEFLSRRFLLRRKFIPDPQGTNLMFAFFAQHFTHQFFKTSGKMGPGFTKALGHGVDLGHIYGDNLERQYQLRLFKDGKLKYQMLNGEVYPPSVEEAPVLMHYPRGIPPQSQMAVGQEVFGLLPGLMVYATIWLREHNRVCDLLKAEHPTWGDEQLFQTARLILIGETIKIVIEEYVQQLSGYFLQLKFDPELLFGAQFQYRNRIAMEFNQLYHWHPLMPDSFRVGPQDYSYEQFLFNTSMLVDYGVEALVDAFSRQPAGRIGGGRNIDHHILHVAVDVIKESRELRLQPFNEYRKRFGMKPYTSFQELTGEKEMAAELEELYGDIDALEFYPGLLLEKCHPNSIFGESMIEMGAPFSLKGLLGNPICSPEYWKASTFGGDVGFNLVKTATLKKLVCLNTKTCPYVSFHVPDPHREDRPGVERPPTEL
B2: Prostaglandin G/H synthase 2 (Ovis aries), P79208 (protein)
chain: MLARALLLCAAVVCGAANPCCSHPCQNRGVCMSVGFDQYKCDCTRTGFYGENCTTPEFLTRIKLLLKPTPDTVHYILTHFKGVWNIVNKISFLRNMIMRYVLTSRSHLIESPPTYNVHYSYKSWEAFSNLSYYTRALPPVPDDCPTPMGVKGRKELPDSKEVVKKVLLRRKFIPDPQGTNLMFAFFAQHFTHQFFKTDIERGPAFTKGKNHGVDLSHVYGESLERQHNRRLFKDGKMKYQMINGEMYPPTVKDTQVEMIYPPHIPEHLKFAVGQEVFGLVPGLMMYATIWLREHNRVCDVLKQEHPEWGDEQLFQTSRLILIGETIKIVIEDYVQHLSGYHFKLKFDPELLFNQQFQYQNRIAAEFNTLYHWHPLLPDVFQIDGQEYNYQQFIYNNSVLLEHGVTQFVESFTRQIAGRVAGRRNLPAAVEKVSKASLDQSREMKYQSFNEYRKRFLLKPYESFEELTGEKEMAAELEALYGDIDAMELYPALLVEKPAPDAIFGETMVEAGAPFSLKGLMGNPICSPEYWKPSTFGGEVGFKIINTASIQSLICSNVKGCPFTSFSVQDAHLTKTVTINASSSHSGLDDINPTVLLKERSTEL

Legend:
[1] = substrate: CCCCC/C=C\C/C=C\C/C=C\C/C=C\CCCC(=O)O; assay: Activity of bovine seminal microsomal COX1; details: Bos taurus
[2] = substrate: CCCCC/C=C\C/C=C\C/C=C\C/C=C\CCCC(=O)O; assay: Activity of sheep placental cotyledons COX2; details: Ovis aries

Row | Protein | Km [1] [µM] | Km [2] [µM]
1 | B1 | 8.8 | 
2 | B2 |  | 9.7

From ChEMBL document CHEMBL1158843, “Development of a radiochemical cyclooxygenase-1 and -2 in vitro assay for identification of natural products as inhibitors of prostaglandin biosynthesis” (J Nat Prod, 1998)
